Laboratory results reported in patent US12630596B2, “Engineered lysin-human defensin protein” (priority 2018, dated 2026).
“Also recorded” adds a separate entry of the source.

Experiments:
C. difficile R20291 [1] = assay: Optical drop assay, lytic activity on C. difficile R20291; type: cell-based, Clostridium difficile; details: strain R20291, 200 μg/ml
Protocol: (§1) The lytic activity of proteins LHD and LCD against C. difficile strains was determined as previously described (Wang, Euler et al. 2015). Briefly, C. difficile strains were cultured in an anaerobic chamber to mid-log phase, and the bacterial pellets were harvested by centrifugation at 3000×g for 5 min. Pellets were washed twice and re-suspended in sterilized ddH2O, and resuspensions were not buffered. Prior to tests, bacterial optical density at 600 nm (OD600) was adjusted to approximately 0.8-1.0. Proteins LHD and LCD were added into the cell re-suspension with the final concentration of 200 μg/ml. The drop in OD600 at 37° C. was measured every 10 minutes for 60 min˜90 min. Bacterial re-suspension with sterilized water was also set as a control. Three repeats were included in each test.

C. difficile R20291 [2] = assay: Lytic activity of LHD after incubation with mouse intestinal contents; type: in vitro ADME; details: 37° C., 1 hr
Protocol: Protein LHD was incubated with mouse intestinal contents at 37° C. for 15, 30 or 60 minutes, then optical drop assays were performed on C. difficile R20291 to test the lytic activity of LHD at a concentration of 100 μg/ml. Experiments were repeated 3 times, and representative data were shown.
To appreciate the stability and activity of LHD in the mouse intestine, […] was incuated with freshly prepaerd mouse intestinal contents for 15 min, 30 min and 60 min, and retrived by centrifugation. Lytic activities of LHD treated with intestinal contents were determined on strain C. difficile R20291 as described above.

C. difficile R20291 [3] = assay: Lytic activity of LHD on R20291 in different pH conditions; type: cell-based, Clostridium difficile
Protocol: Prior to tests, bacterial optical density at 600 nm (OD600) was adjusted to approximately 0.8-1.0. Protein LHD was added into the cell re-suspension with the final concentration of 200 μg/ml. The drop in OD600 at 37° C. was measured once per 20 minutes for 60 min. Bacterial re-suspension with sterilized water was also set as a control. Data are present as “Mean±SD”. Experiments were repeated 3 times, and representative data were shown.
Prior to tests, bacterial optical density at 600 nm (OD600) was adjusted to approximately 0.8-1.0. Protein LHD was added into the cell re-suspension with the final concentration of 100 μg/ml. The drop in OD600 at 37° C. was measured once per 20 minutes for 60 min. Bacterial re-suspension with sterile water was also set as a control. Experiments were repeated 3 times, and representative data were shown. […]

C. difficile R20291 [4] = assay: Minimum inhibitory concentration (MIC) on strain R20291; type: cell-based, Clostridium difficile; details: strain R20291, BHIS, 37° C. for 18 h
Protocol: The minimum inhibitory concentrations (MICs) of LHD and LCD were determined using the protocol of Wiegand, et al. (Wiegand, Hilpert et al. 2008) with some modifications, as described previously (Gilmer, Schmitz et al. 2017). In brief, strain R20291 was grown in BHIS and adjusted to ˜5×10^5 cells/ml in BHIS, and distributed into the wells of a 96-well round bottom polystyrene microtiter plate. In the wells of each row, either sterile-filtered lysin or control vehicle (metronidazole, vancomycin and fidaxomicin) was added with a final concertation varied from 200 μg/ml to 0.19 μg/ml (2-fold dilution) (Wiegand, Hilpert et al. 2008). The plates were incubated at 37° C. for 18 h. The MIC was “the lowest or minimum concentration of lysin or control vehicle that prevented the formation of a cell pellet (a measure of growth) on the bottom of the wells” (Gilmer, Schmitz et al. 2017). The MICs were also confirmed by measuring the OD600 values using a Bio-Rad plate reader (Bio-Rad, Hercules, CA).

[5] = target: Clostridium difficile toxin B (TcdB) (Clostridioides difficile, UniProt P18177); assay: Inhibition of TcdB cytotoxicity in CT26 cells (cell rounding, non-glucosylated Rac1 Western blot); type: cell-based; details: pre-treatment 750 ng/ml 1 hr, TcdB 15 ng/ml 5 hrs
Sequence of Clostridium difficile toxin B (TcdB) (P18177 whole entry): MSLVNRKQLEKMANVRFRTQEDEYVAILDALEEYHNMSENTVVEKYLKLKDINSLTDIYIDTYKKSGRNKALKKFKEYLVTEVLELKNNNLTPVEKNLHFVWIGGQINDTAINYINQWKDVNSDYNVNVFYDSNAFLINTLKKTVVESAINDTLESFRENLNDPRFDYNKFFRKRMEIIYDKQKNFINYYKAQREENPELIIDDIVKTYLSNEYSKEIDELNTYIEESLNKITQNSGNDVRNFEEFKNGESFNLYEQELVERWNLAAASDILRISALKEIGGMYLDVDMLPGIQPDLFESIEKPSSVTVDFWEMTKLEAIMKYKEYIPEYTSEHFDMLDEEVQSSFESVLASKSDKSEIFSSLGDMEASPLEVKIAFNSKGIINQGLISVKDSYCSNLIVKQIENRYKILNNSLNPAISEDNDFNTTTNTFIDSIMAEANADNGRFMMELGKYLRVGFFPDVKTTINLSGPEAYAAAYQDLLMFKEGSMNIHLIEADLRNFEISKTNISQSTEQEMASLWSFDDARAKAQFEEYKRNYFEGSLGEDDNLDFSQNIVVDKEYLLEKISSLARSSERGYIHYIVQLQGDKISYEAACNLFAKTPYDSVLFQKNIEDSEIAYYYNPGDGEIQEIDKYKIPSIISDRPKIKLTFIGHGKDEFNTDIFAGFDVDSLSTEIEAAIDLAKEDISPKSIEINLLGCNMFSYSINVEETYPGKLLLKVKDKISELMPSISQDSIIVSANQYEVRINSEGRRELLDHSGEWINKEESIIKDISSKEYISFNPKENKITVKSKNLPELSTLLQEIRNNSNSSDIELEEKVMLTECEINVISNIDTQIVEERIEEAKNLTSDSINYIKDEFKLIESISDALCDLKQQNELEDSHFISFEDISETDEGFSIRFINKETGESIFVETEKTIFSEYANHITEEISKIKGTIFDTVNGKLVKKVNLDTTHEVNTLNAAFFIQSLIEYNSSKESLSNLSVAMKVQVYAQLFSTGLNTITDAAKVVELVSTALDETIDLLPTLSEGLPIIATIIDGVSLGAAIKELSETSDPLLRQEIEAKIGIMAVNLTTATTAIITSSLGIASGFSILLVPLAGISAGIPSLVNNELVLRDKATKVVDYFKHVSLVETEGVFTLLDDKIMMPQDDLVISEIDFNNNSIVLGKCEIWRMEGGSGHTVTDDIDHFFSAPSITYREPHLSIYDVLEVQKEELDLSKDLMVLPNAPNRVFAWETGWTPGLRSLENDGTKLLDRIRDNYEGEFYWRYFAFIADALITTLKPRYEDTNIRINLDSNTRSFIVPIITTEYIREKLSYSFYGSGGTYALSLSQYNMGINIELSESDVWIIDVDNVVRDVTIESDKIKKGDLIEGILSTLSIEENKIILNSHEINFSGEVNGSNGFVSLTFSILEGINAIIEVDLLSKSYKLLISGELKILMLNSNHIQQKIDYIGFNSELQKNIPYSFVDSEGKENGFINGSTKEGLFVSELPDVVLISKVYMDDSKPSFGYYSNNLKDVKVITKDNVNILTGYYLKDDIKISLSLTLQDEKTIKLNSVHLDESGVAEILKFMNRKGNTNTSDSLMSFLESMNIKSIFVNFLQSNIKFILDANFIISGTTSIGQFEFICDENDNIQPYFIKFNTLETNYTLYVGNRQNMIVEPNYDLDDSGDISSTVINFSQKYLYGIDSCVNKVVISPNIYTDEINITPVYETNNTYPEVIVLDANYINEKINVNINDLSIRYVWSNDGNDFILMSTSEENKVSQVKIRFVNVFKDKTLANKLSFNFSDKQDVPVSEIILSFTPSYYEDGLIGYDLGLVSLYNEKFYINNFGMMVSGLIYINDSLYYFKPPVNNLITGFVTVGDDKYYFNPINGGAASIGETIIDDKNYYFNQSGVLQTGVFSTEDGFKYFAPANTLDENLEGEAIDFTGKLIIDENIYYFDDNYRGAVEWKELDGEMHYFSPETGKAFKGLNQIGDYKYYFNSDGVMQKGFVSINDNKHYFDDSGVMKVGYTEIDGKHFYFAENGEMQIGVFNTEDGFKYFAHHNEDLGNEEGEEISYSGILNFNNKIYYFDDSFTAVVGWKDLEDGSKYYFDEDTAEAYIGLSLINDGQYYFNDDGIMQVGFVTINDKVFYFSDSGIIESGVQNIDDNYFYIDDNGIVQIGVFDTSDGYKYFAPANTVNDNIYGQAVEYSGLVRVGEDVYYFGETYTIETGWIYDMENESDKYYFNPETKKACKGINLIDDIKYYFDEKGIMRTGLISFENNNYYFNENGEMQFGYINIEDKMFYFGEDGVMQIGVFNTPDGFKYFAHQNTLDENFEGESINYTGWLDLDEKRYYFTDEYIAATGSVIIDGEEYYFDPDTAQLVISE
Protocol: (FIG. 5A) LHD inhibits TcdB-induced cell rounding. CT26 cells in 12-well plates were exposed to HD or LHD at 750 ng/ml (50 times of TcdB concentration) or nothing for 1 hour, followed by exposure to TcdB at 15 ng/ml for 5 hours. (FIG. 5B) Western-blot analysis of non-glucosylated Rac1 in CT26 cells treated with TcdB in the presence or absence of LHD or HD. TcdB glucosylates Rac1 in cells, serving as a readout for toxin cytotoxicity. Quantitation of Rac1 levels in Western-blot was shown in low panel (*p<0.05). (FIG. 5C) CT26 cells were lysed, and the cytosolic fraction was exposed to TcdB (15 ng/ml) with or without HD at 750 ng/ml (50 times of TcdB concentration) or LHD at 1500 ng/ml (same molecular concentration as HD) or nothing for 1 h followed by Western Blot analysis using a monoclonal antibody that only recognizes non-glucosylated Rac1. β-actin was used as an equal loading control. Quantitation of Rac1 levels in Western-blot was shown in low panel (****p<0.0001).
It was reported that the human defensin protein HD5 (HD) could inhibit TcdB (Giesemann, Guttenberg et al. 2008). Therefore, we evaluated the inhibitory effects of LHD and HD on TcdB. Briefly, CT26 cells in 12-well plates were exposed to LHD, synthesized HD or PBS at 750 ng/ml (50 times of TcdB concentration) for 1 hr, followed by exposure to TcdB at 15 ng/ml for 5 hrs. Total cell lysates were subjected to 12% SDS-PAGE separation, and transferred onto a Nylon membrane. Following blocking for 1 hr at room temperature with 5% skim milk, the membrane was incubated overnight at 4° C. with RAC1 antibody (1:1000, Cat: 610650, BD Biosciences) and β-actin antibody (1:10000, Cat: A5441, Sigma-Aldrich).

[6] = tested on: C. difficile strains M120, VPI 10463, CD630, LC693, 1377; assay: Optical drop assay, lytic activity on other clinical epidemic C. difficile strains; type: cell-based, Clostridium difficile
Description: C. difficile strains R20291 (ribotype 027), M120 (ribotype 078), VPI 10463 (ribotype 087; ATCC 43255), CD630 (ribotype 012), LC693 (ribotype unknown, ST201), and 1377 (ribotype 012) were used in this study. Strains M120 and VPI 10463 were provided by Dr. Joseph A. Sorg from Texas A&M University. Strains R20291 and CD630 were provided by Dr. Abraham L. Sonenshein from Tufts University. Strains 1377 and LC693 were epidemic clinical strains in China (Li, Liu et al. 2015, Peng, Liu et al. 2017).
as §1

B1: LHD: Fusion of phage phiC2 lysin catalytic domain (LCD, 179aa), (GGGGS)3 linker and human alpha-defensin 5; SEQ ID NO:1 (protein)
chain: MKICITVGHSILKSGACTSADGVVNEYQYNKSLAPVLADTFRKEGHKVDVIICPEKQFKTKNEEKSYKIPRVNSGGYDLLIELHLNASNGQGKGSEVLYYSNKGLEYATRICDKLGTVFKNRGAKLDKRLYILNSSKPTAVLIESFFCDNKEDYDKAKKLGHEGIAKLIVEGVLNKNINGGGGSGGGGSGGGGSATCYCRTGRCATRESLSGVCEISGRLYRLCCR
lytic activity (drop in OD600) (C. difficile R20291 [1]): potent lytic activities | lytic activity after treatment with intestinal contents (C. difficile R20291 [2]): did not affect lytic activity | lytic activity at pH (C. difficile R20291 [3]; PH of 5, R20291): partially active | lytic activity at pH (C. difficile R20291 [3]; PHs of 2, 3, and 4, R20291): lost almost all activity | lytic activity at pH (C. difficile R20291 [3]; PHs of 6 and 7, 200 μg/ml, R20291): more efficiently | MIC (C. difficile R20291 [4]): 0.78 µg/mL | cell rounding caused by TcdB [5]: decreased cell rounding; also recorded: comparable to human defensin peptide HD5 | non-glucosylated Rac1 in cells (readout of cytotoxicity of TcdB) [5]: significant increase | lytic activity (drop in OD600) ([6]; different types of clinical epidemic strains, 200 μg/ml): potent lytic activities | lytic activity compared with LCD ([6]; strain M120, p<0.05): more potent than LCD | lytic activity compared with LCD ([6]; strains VP110463, CD630, LC693 and 1377): slightly more potent
